Source: patent publication US20180022822A1, “NOVEL ANTI-FIBROBLAST ACTIVATION PROTEIN (FAP) BINDING AGENTS AND USES THEREOF” (Mabimmune Diagnostics AG, priority 2016, published 2018)

Tested on: 4T1 breast tumor
Conditions: mouse, in vivo
Procedure: A murine cancer model was generated by the injection of 100′000 4T1 cultured breast tumor cells orthotopically into the 2nd left breast of Balb/c immunocompetent mice and allowed to grow for 7 days. Prior to in vivo imaging, the animals were shaved and de-epilated to remove fur for minimal absorbance and scattering of the incident optical light. In-vivo imaging was performed with the Maestro 500 imaging system (Cambridge Research Inc, Woburn, USA). For A680-82C2 detection, a band pass filter from 615 nm-665 nm and a highpass filter over 700 nm were used for excitation and emission light respectively, and fluorescence was detected by a CCD camera (cooled to 11° C.). A series of images were acquired at different wavelengths and then subjected to spectral unmixing (deconvolution of collected optical spectra; this enabled the unmixing of the Alexa680 fluorescence pattern from tissue auto-fluorescence and other spectral contributions).
Whole mice images were acquired at the following timepoints: before antibody injection, immediately after antibody injection, 6 h, 24 h, 48 h, and 6 d after antibody injection.

B1: NI-206.82C2: human-derived recombinant anti-FAP antibody; VH SEQ ID NO: 2 or 4 (PIMC), VL SEQ ID NO: 6 (antibody, V domains shown)
VH: QVQLQQSGPGLVKPSQTLSLTCAISGDSVSSNSVTWNWIRQSPSRGLEWLGRTYYRSKWYNDYAVSVKGRITINPDTSKNQFYLQLKSVTPEDAAVYYCARDSSILYGDYWGQGTLVTVSS
VL: QAVLTQPSSLSASPGASASLTCTLPSGINVGTYRIFWFQQKPGSPPQYLLSYKSDSDNHQGSGVPSRFSGSKDASANAGILLISGLQSEDEADYYCMIWHSSAWVFGGGTKLTVL
  antibody concentration after 6 d post antibody injection: declines to almost zero
